In the NTF2 design screens of Basanta et al. (2020):

Experiment: protease stability score; higher = more stable; yeast display proteolysis, trypsin and chymotrypsin;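 note: log10 excess protease needed over predicted unfolded state with 0 meaning unfolded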
“DEHDMAHKFFHDLVEAAKTGDRDKIKRLADPNVKIEYGDKRLHGHKDYANFIQKIVERVDSVNFQLQSVSVTGDKVRMIYTLDVVENGQKRTDRLQIEAQIHNGDIIAKRVVEG” gave a protease stability score of 0.873.
“DEHDTEVAERALNDLKTGDPDKVTEMADKHVKYVVGEKRIQGRETYAKTVEKERDEIRVDWSVHNIQVHNGKLDVSAEFRFTVNGQPNSDSARWEFTLRNGKIQEVVMKVSDRFLKQMRS” gave a protease stability score of -0.15.
Work on “DEHDVRELLKALTTGNEDDMRKMLDKDVTANIGNFRVKGREQQLTLIRRMLERADHLSVTSFSSHNGNVEVDVQVTVDGRRIRYVIRAQAHNGKVNSVRMDVTDHSVEQTLRHLHS” yielded a protease stability score of 1.36.
For “DEHEAEKLLKLLTENDPRQFQNEADKNVRVFYGDKEVHGREQFHTWVQRVRERVDTLEIKRVETRPGRLEVKFRVNVNGQTLEMVLVIVVHNGKIQDVKLHARDHDVMKRWKEAVS”, the protease stability score was 0.82.
Work on “DEHEAKKMSEMFKNLATGNPDTAKRQFDKDASVQIGDKVVHGREHLSRTLKRRRDQIRVVVEDVKVTVNGDKAEIQVIFSWEHNGEPRRSVYFATVHWHNGNVKKVTVTEQS” yielded a protease stability score of -0.121.
With “DEHEEAKKVADRMIEVEKTGDEDSLTENFDPNVRFKIGDRTYHGEKDMQQLLREIKERADHIDIDVKHVTAHNGRADIDRVRVIQVDGQRRKQRIRMDLTFHNGRLHLKQMKVD” the protease stability score was 0.31.
With “DEHEKMKKHMTEWRSAFKRGDPDTVRKLADKDVDVEVGDKVLHGREQVANHVVDLARTVDHVDIRIETMEVNGDHFVLVMSAVFDVNGKRDERKFVLVAKLHNGTIKVKNMKRS” the protease stability score was 0.07.
“DEHEKQKKAKDAADLIRHNNPERVAELFDEDARVRVGDHTYHGREHIVRVLQTLVDQIDHMQLTDLDVHGETLRLHIVMQINGKKVDMQLDIELKNGKMKRMRFDPDRVRDVQK” gave a protease stability score of 0.466.
In the case of “DEHELNKFEQLLRDRETGDEEHLKRLMDKDARVNVGDKNVHGREEAANQQVERVKRMDVRILHMDLKDNNGKINADITRIIHTNGHPDKHQFVLTVDVKNGRVQNIRQDDTS”, the protease stability score is reported as -0.284.
“DEHELREILDKANEAWKRNDPDEMVKQADKDVEVKIGDKDFHGREEAHEAMKELHDRADHISIRDYDASGNKARIHMYIVVNGRRVDFVVIIVVRNGRIQKIELNVRDEKAKSNLKQ” showed a protease stability score of 1.09.
With “DEHELRRQADDFWHAVRTGDEKRIVELLDPNAHAVVGDKRYHGEKQIRQLVRSMREQVDTFRVSSITVSGDDIEIDIVLNVNGREFRATIVLRQHNGKVTELKLHPNINRALES” the protease stability score was 1.28.
Sequence “DEHEMKKVADQIVDILRTGDQDRFRDLADPNVRVSVGDKTVHGRHQAQQQVKRLKDQVDHVQLKDMKIHGNTVVVKAHVEINGNTTDRDVKFELHNGRVSHLTIDPEAQKVMDT” has a protease stability score of 0.273.
Work on “DEHFETVARLMLHALEDNNPEVLRENLDPNARVQVGDQDLTGRDTVVKVAHRLLTEIRIHIQIDSVRNQGDTVEFDAKFRANVNGRPYSVKVVIVYVVRNGRAVHIQVRMDPDFLRKLRK” yielded a protease stability score of 0.938.
In the case of “DEHHAAKRLMDNLLQAMRTGDTDTLKKLADPNVRIDVGDKTYHGREQFLQWMKELVKHVDSVHVDIKRFTVDGNNATIDAEARRDVNGNDHSEKVSVVAEVSGDKMHLKEIQYR”, the protease stability score is reported as 1.04.
“DEHHEARKMIKHYFELLNQGNFEEAAKLFDEDAKVHVGDRTVNGREQIHDWFTRMRKQIDEFTVRLTKVEVSNGHVRVDFYYTKNHNGKSKSNSVDMIFQNNNGRIRAKSMQEK” showed a protease stability score of -0.085.
“DEHHRKEFEDMLRVEQHGNEEQLKRYMDPNARFRYGDKKVHGREEVVRQISKRRHKLRMQYDTWDIKVKGDKITADLKYVEHQNGQPEDVRVNVSIRFHNGKLVEAHRERDK” gave a protease stability score of -0.001.
In the case of “DEHHTQEARKFLENQQTGNETELQKYADPNASAQIGDKRVHGMEKFAHTIRKEVDELRMTIHDVRFDANGEKVIVHVDVQYDHNGRPERATMVVLFKHNNGKATEITARYDK”, the protease stability score is reported as 0.411.
In the case of “DEHIAKDLHRLAETGNWQELVEQADKDAKAKVGDKTYHGREDLQTLNRQWNEHVDHENLERVTLNPDHLVILFKMQVNGKDFAANVRIRRHNGRVEHIQVDARDDEQKKILHELLS”, the protease stability score is reported as 0.657.
Work on “DEHIDHMYKEILRLLETGNSEEAQKLLDPNVKVVVGDKRYHGREDYARDMVRRIKEMDVQRDFDHVSVHNGKVDADAKQTTNSNGRPSSNTVRITIVQHNGRIHMIKIDSRQ” yielded a protease stability score of 0.041.
Work on “DEHIEEVATKHLKAQHTNDPKQFRDLADKDVEVEVGDKNIHGREQNANEQKRRRDEWEFEMKIDHISAHDGRAILRVKINYVVNGKPINVDAVIRLHAHNGTIKELSVQVDPDQMREVKS” yielded a protease stability score of 1.
With “DEHIQKQFQKILEAINQNNPEQFRRLVDKHAQITIGDEVVHGRDDAVRTLEKKMREMKVEIEVDSVNVQGEKLTATLKVELDINGKPNTDTVVVQMRAENGKLKSAHYRVDPTTRRKVKS” the protease stability score was -0.179.
Work on “DEHKAHRRAQELVEVMKQGDFKRWQEMADPNADVHYGDKRVHGMNEAADVMRQIRNDADHIRVKTYEAKGERIHIDFRVSFNGKQITFDLVVEIRNGTIKTAQFDPDAIRHLES” yielded a protease stability score of 0.5.
Work on “DEHKEAEELARQLQRVARHNNPDQFAHMLDKDVKIDIGDKTVHGRENARNMMTELVKDYDSLDAKVDSFDVHNGTIDIKMTFSFNHNGKTTTTSVEFRARKHNGHVRIVYIKYG” yielded a protease stability score of 0.234.
For “DEHKEAHQFAREMNKALETGDPDRYAQLADPNVKVDIGDKTYKGREDMSQYIEDLLTDADHVSMNIRSIDVQGEKVSLDFEVSNDSNGQQTRRKVKVTAERQGDKLVIVSIKVS”, the protease stability score was 0.184.
“DEHKEASEYIEQAEENMRDNNFRRMMQNADENVKLKYGDKELEGREQVESWANTVQSRADHFEIRVESMTVTGDHISIVLSHIVRHDGRRVKQKIIIIFKVHNGRARIEHIEFK” gave a protease stability score of 0.044.
With “DEHKEREIAERYAQNLTHGNPTEIARQFDPNVKMTVGDKELQGREQVEEALHNFRERVDHHSYDTFTVSNGRVNISAQANVDGKNVKVDVRVVVNNGRVKDVKINPEQWKHVQG” the protease stability score was -0.234.
For “DEHKHAEQHVKELIDALETGDPEKVRKNADEDVSAVYGDTTLQGTDQVVKAVHDIRNRYDSVRVEIKTVHIQNGRVVVTATVVLNQNGKNDTVSANIQLKVDNGRFKLVHDQLG”, the protease stability score was 0.739.
“DEHKIAKKLADTVMSLMKTGNFDQLAKQADPNVKIEIGDTTIHGREELVKTQKRLNDQIDHVDVRVNKVQMHGDKVNIDMDFVINVNGKNERRKLTVRAKVHNGRAIITEIRYG” gave a protease stability score of 1.01.
“DEHKIATKQMEEFTEAMKRGDEDRMKSNADENVRIEVGDKEVHGQNQFKQTVANILKRVDHIRIKLRDWRNHNGRVDLVYQVNFDHNGRHKNDKYTVRMRIQGDKAKIEHVKAP” showed a protease stability score of 0.349.
For “DEHKLKEFATRIMEAWEQGDPRKLEELMDPNARYIVGDKTLHGREEAKKRMEEFRKNVDHVEFTSVRAQNGHISITFVANVNGERETRVVDIKVDNGRVKNMDIKHK”, the protease stability score was 0.7.
For “DEHKLQQVFEKFLKAFNTGDRDLARKLMDPNVKLDVGDKTYHGREQAMRWMHQVRQKADHIQVQSMESSGNKATVDIVIEHNGKSTSEVIRLEVENGHFRHVRKDSP”, the protease stability score was 0.091.
With “DEHKQIREFQKKQQKWWERGNWEELDKMFPPDARMSIGDTTVHGRESIRKTLKDLVDSADSVSVEFKHFKFHNGRAHVDAVLSVDVNGKKVDVKFNANLQVHNGTLFVDEVVRK” the protease stability score was 0.118.
Sequence “DEHKQQERAEDAVRVMQKGDERRFHEQLDENVRVTIGDREVHGRENAVEMFQEWVKRADHIRVDKLEVSNGVVNAHFEVEHNGQTRHQVMVVTYHNGEIQHMTIDRG” has a protease stability score of 0.741.
“DEHKVKEAAERFVRMLEHNDPDTLSKLFDPNVTMQVGDKEYQGRETLMRLVKELKKRVDHIEVKQVHASNGRVNVRMTIQFNGKRFEFTMHIVLHDGRVDTLSLDVRNEEEKRRVDS” showed a protease stability score of 1.31.
Work on “DEHKVKEIEDIVRNNDFLKLANMADENARVRYGDKDFHGRERIKTQAQRFETKFDHAEIKSLDVRGNEISVDMVAVFNGRSVRFRMILVVKNGQIKMMEFRATSEKEETKLKEALS” yielded a protease stability score of 1.25.
Sequence “DEHKYRKLAEQINKALEDGDSREMMRLMDKDVKARYGDKTVHGRDDARKLFEDRQDHVDKIQVDDYRVDGDDITVVMTYNHNGRTTVQVLVFRLRNGRIKSASVHSQ” has a protease stability score of 0.998.
Sequence “DEHLFKRLVDIIKHGNFEELARQADENARVVVGDRTVKGRNEVEELMQRLRQKIDHVQIDHWSRHGDTVTISFVANVNGRRLEFTLMAAFDNGRIHEVVFHSTNEEVTKIMKEILS” has a protease stability score of 1.93.
Work on “DEHLHKAVNQLWHAIKTNDPDKVQELADPNVRIQVGDKEIHGREEFAHQVRRTREQMRVRIDIKQVDVQGNKVDIEYDYEYNVNGQPRSDRVTAVFVLHNGKVQRMHIHISEEQLRQQEK” yielded a protease stability score of 0.886.
Work on “DEHLLKEAEKHLKQIERGNPDEAVKMVDPNAKFHIGDKTIHGREHWREWVERQVKDQRFKIRLDDMEDHNGKLVLEVTATYDINGKPVTLTVRWEFDIHNGRAQSVRVQVDPKQQEDLKR” yielded a protease stability score of 0.535.
With “DEHLNRHLSTVLNILQEGDPKKLLQQFDPNAHFQIGDTHVHGREQMDQQMERERRRARTEVKDYKVDDQGEQLVLHMTFRVDRNGKPKEMQATIKAEVHNGHFKEMKFETDR” the protease stability score was -0.089.
For “DEHLQEVWENMLRAQENGDPDSFSRLVDPNVDFVYGDQTVHGREQAMTELKRRTDEIRFEIHHVDVRAQNGHIRVRIDQVKEHNGTPHREKTKNTIVADGDKVKSVEVRSDG”, the protease stability score was -0.256.
In the case of “DEHLQTLVTDLIRAEQNNDEERLKRLMDPNVRAQYGDQTVSGREEIVQKIIHKNREIHFSQEIKSISAHNGRIHVTVEFTEEHNGEPRRDKMHQTIIAHGDQIKEVRVKSDG”, the protease stability score is reported as -0.28.
“DEHLVEKVEEFLQNLQNNNEEEIQKQVDPNAKIDVGDKTVDGREEANKWAEELKDESRFEIKDVKYESHNGRVRANFTAQVDHNGRPETRKYDITFNWHDGVIKHIDNKTTS” gave a protease stability score of 0.403.
In the case of “DEHLVRLADRLLTAVRHGDEDRWVEQFDPNATVKIGDKELHGRSQIKTELERERDTSRVNVQRFSIEDQGDKAVVDVEYVITKNGRPQKDRAKATYNVNNGRFKNASMQKVS”, the protease stability score is reported as -0.413.
Sequence “DEHNAHVLKQAMEAMATGDEKRFVELVDPNARMKVGDKEIKGREDFQEYLTDLHRHARVEVHHIHVNDNGDRFEIDVTQVIEINGRPDTKRMTLEAVAHNGQVKEINLRVPEEEWRRLER” has a protease stability score of 0.316.
In the case of “DEHNEAVELMKKLWEAARTGDEEELHKQVDKDVRINVGDKELHGNSQAARKIMERAKRVDHVDVKIQEVTHKGDKIVMRVQFRNTHNGRETDSRYVVWFKNSNGRWVFVKIERG”, the protease stability score is reported as 1.31.
With “DEHNHKVAEEIFKALTTGDPDKVRENFDKDASLVIGDKTVNGRKQIKEEVQKRKDEMRIDFKNIDIQVSDGKVRVNVRMQVNINGQPVDFTLDAEFDIHNGKAKQVRFEFDEKDKRTLEQ” the protease stability score was -0.059.
“DEHNMKLASRLVRAVQTNDPDQWVRNVDKNVRVQVGDKTVHGREEFHRQMEKKAREMRYEVQMDQVTVHGDKVRIDITERSNVNGRPHHKRAEMIVHVSNGKVQRVEVQDRK” gave a protease stability score of -0.162.
“DEHNNEMARKVLHAWRKGDENRVKRMLDPNARIVIGDKTIHGMEQMQTWVQELKKEITIDLKSVHVQSQGDKANVEFTHKQKDNGKPDSRKVTVIFVFSNGRIKRIQVDDDG” gave a protease stability score of 0.033.
“DEHNSRQAKEWVKALNHNDTSRLMELVDPNATITVGDKSLTGREQMSEDVDRKREEINVFVNRVEVNSHGDRAKVRIDYQQHENGRPQRNVIVAILQFHNGKIQRVENEHDQ” showed a protease stability score of -0.052.
